Tests used:
[1] = biological target: Hfq WT (Escherichia coli K-12 MG1655) (UniProt P0A6X3); experiment: EMSA; details: EMSA: 20 mM Tris-HCl pH 7.6, 0.5 M NaCl, 1 mM EDTA, 1% glycerol, 20 min at 25 C, native PAGE in 0.5x TBE at 4 C
[2] = biological target: Hfq WT (Escherichia coli K-12 MG1655) (UniProt P0A6X3); experiment: competition; details: EMSA: 20 mM Tris-HCl pH 7.6, 0.5 M NaCl, 1 mM EDTA, 1% glycerol, 20 min at 25 C; native PAGE in 0.5x TBE at 4 C

Substance	K half ([1]; Hfq monomer, K1 (first shift))	binding [2]	K half [1]	binding signal ([1]; 347.5 nM Hfq monomer)
DsrA	122 nM	–	–	–
GGGAACACAUCAGAUUUCCUGGUGUAACGAAUUUUUUAAGUGCUUCUUGCUUAAGCAAGUUUCAUCCCGACCCCCUCAGGGUCGGGAUUU [DsrA]	–	binds	122 nM	–
RNA I FL	225 nM	–	–	72.1 % bound
